From PMC7337937, “CryoEM structures of human CMG–ATPγS–DNA and CMG–AND-1 complexes” (Nucleic Acids Research, 2020)

What was measured:
[1] = target: human CMG helicase (Cdc45-MCM2-7-GINS) (Homo sapiens, UniProt O75419;P49736;P25205-2;P33991;P33992;Q14566;P33993;Q14691;Q9Y248;Q9BRX5;Q9BRT9 …); experiment: cryo-EM structure (3.29 A); 100 uM ATPgS, 5 mM Mg acetate; ATPgS-Mg2+ at MCM6, MCM4, MCM7; ADP at MCM2, MCM3; MCM5 apo; Buffer S: 25 mM HEPES pH 7.5, 50 mM KCl, 5 mM Mg acetate, 2 mM DTT, with 100 uM ATPgS and 4 uM fork DNA, loaded on StrepTrap-bound CMG; eluted with 15 mM desthiobiotin; binding temperature not stated; details: protein: recombinant; tags: MCM4 N-terminal His8-TEV; Psf2 C-terminal TEV-2xStrepII; copies: 1;1;1;1;1;1;1;1;1;1;1; fork: 40 bp duplex 1:1-40 2:31-70; 30 nt unpaired tails, 3' poly-dT (strand 1) and 5' GC-rich (strand 2)
[2] = target: the molecule itself; experiment: cryo-EM structure; CMGA: AND-1 co-expressed with the CMG subunits in HEK293-F, co-purified; 1 mM ATPγS added, glutaraldehyde cross-linked before grid preparation; 6.77 Å map, CMG structure and AND-1 trimer crystal structure docked as rigid bodies

| Binder | binding result [1] | stoichiometry N [2] |
| --- | --- | --- |
| fork DNA (70T/70GC) (mixed) DNA 1: CGTTTTACAACGTCGTGACTGGGCACTTGATCGGCCAACCTTTTTTTTTTTTTTTTTTTTTTTTTTTTTT DNA 2: CAGGCAGGCAGGCAGGCAGGCAGGCAGGCAGGTTGGCCGATCAAGTGCCCAGTCACGACGTTGTAAAACG | binds | – |
| human AND-1, recombinant full length (natural protein, UniProt O75717 1-1129, looked up, AND-1, human, full-length ORF from IMAGE cDNA clone 6514641; The tag is 2xStrepII-TEV; no TEV cleavage step is described; Only the SepB domain is visible in the map; also called AND-1 trimer; source: HEK293-F, transient co-transfection with the CMG subunits, co-purified as CMGA) MPATRKPMRYGHTEGHTEVCFDDSGSFIVTCGSDGDVRIWEDLDDDDPKFINVGEKAYSCALKSGKLVTAVSNNTIQVHTFPEGVPDGILTRFTTNANHVVFNGDGTKIAAGSSDFLVKIVDVMDSSQQKTFRGHDAPVLSLSFDPKDIFLASASCDGSVRVWQISDQTCAISWPLLQKCNDVINAKSICRLAWQPKSGKLLAIPVEKSVKLYRRESWSHQFDLSDNFISQTLNIVTWSPCGQYLAAGSINGLIIVWNVETKDCMERVKHEKGYAICGLAWHPTCGRISYTDAEGNLGLLENVCDPSGKTSSSKVSSRVEKDYNDLFDGDDMSNAGDFLNDNAVEIPSFSKGIINDDEDDEDLMMASGRPRQRSHILEDDENSVDISMLKTGSSLLKEEEEDGQEGSIHNLPLVTSQRPFYDGPMPTPRQKPFQSGSTPLHLTHRFMVWNSIGIIRCYNDEQDNAIDVEFHDTSIHHATHLSNTLNYTIADLSHEAILLACESTDELASKLHCLHFSSWDSSKEWIIDLPQNEDIEAICLGQGWAAAATSALLLRLFTIGGVQKEVFSLAGPVVSMAGHGEQLFIVYHRGTGFDGDQCLGVQLLELGKKKKQILHGDPLPLTRKSYLAWIGFSAEGTPCYVDSEGIVRMLNRGLGNTWTPICNTREHCKGKSDHYWVVGIHENPQQLRCIPCKGSRFPPTLPRPAVAILSFKLPYCQIATEKGQMEEQFWRSVIFHNHLDYLAKNGYEYEESTKNQATKEQQELLMKMLALSCKLEREFRCVELADLMTQNAVNLAIKYASRSRKLILAQKLSELAVEKAAELTATQVEEEEEEEDFRKKLNAGYSNTATEWSQPRFRNQVEEDAEDSGEADDEEKPEIHKPGQNSFSKSTNSSDVSAKSGAVTFSSQGRVNPFKVSASSKEPAMSMNSARSTNILDNMGKSSKKSTALSRTTNNEKSPIIKPLIPKPKPKQASAASYFQKRNSQTNKTEEVKEENLKNVLSETPAICPPQNTENQRPKTGFQMWLEENRSNILSDNPDFSDEADIIKEGMIRFRVLSTEERKVWANKAKGETASEGTEAKKRKRVVDESDETENQEEKAKENLNLSKKQKPLDFSTNQKLSAFAFKQE | – | 3 |
